This is an account of results in article PMC4789653, “Atomic visualization of a flipped-back conformation of bisected glycans bound to specific lectins” (Scientific Reports, 2016).

This data set deals with the molecule itself. Put plainly: crystal structure; PHA-E (9 mg/ml, 20 mM Tris-HCl pH 8.0, 100 mM NaCl) with 0.6 mM bisected glycan 2; crystals from 0.1 M sodium acetate pH 4.5, 25% PEG3,350, 20 °C; 3.0 Å.

The term stoichiometry N denotes a count of units in the complex or per binding partner.

B1: phytohemagglutinin from Phaseolus vulgaris (PHA-E) (natural protein, UniProt P05088 22-275, looked up)
chain: ASQTSFSFQRFNETNLILQRDATVSSKGQLRLTNVNDNGEPTLSSLGRAFYSAPIQIWDNTTGAVAASPTSFTFNIDVPNNSGPADGLAFVLLPVGSQPKDKGGLLGLFNNYKYDSNAHTVAVEFDTLYNVHWDPKPRHIGIDVNSIKSIKTTTWDFVKGENAEVLITYDSSTKLLVASLVYPSLKTSFIVSDTVDLKSVLPEWVIVGFTATTGITKGNVETNDILSWSFASKLSDGTTSEALNLANFALNQIL
notes: erythroagglutinating phytohemagglutinin (PHA-E), legume lectin from Phaseolus vulgaris; 120 kDa as tetramer; Crystallised with bisected glycan 2; eight subunits in the asymmetric unit; also called E4-PHA; PHA-E lectin; source: purified from Phaseolus vulgaris; bought: J-Oil Mills
In the case of B1, the “stoichiometry N” value was found to be 4.
